Measurements from FireProtDB (doi:10.1021/bi9621829).

B1: Lysozyme C, P61626 (parent)
chain: MKALIVLGLVLLSVTVQGKVFERCELARTLKRLGMDGYRGISLANWMCLAKWESGYNTRATNYNAGDRSTDYGIFQINSRYWCNDGKTPGAVNACHLSCSALLQDNIADAVACAKRVVRDPQGIRAWVAWRNRCQNRDVRQYVQGCGV

Variants of: B1
Settings: Homo sapiens, pH 2.7, Thermal, DSC, glycine 0.05 M, reversible: yes, structure 1LZ1, whole UniProt chain shown

With V20A the “ddG of mutation (higher = less stable)” value (64.9 °C) was 1.51 kcal/mol, the “heat capacity change of unfolding” value (64.9 °C) was 1.56 kcal/mol/K and the Tm was 60.3 °C. For the same variant, the “change of melting temperature, mutant - wild type (higher = more stable)” value (“change of melting temperature, mutant” below) was -4.6 °C, the “heat capacity change of unfolding” value was 1.56 kcal/mol/K and the “unfolding enthalpy (calorimetric)” value was 112 kcal/mol. The “unfolding enthalpy (van 't Hoff)” value was 114 kcal/mol.

In the case of V92A, the “ddG of mutation (higher = less stable)” value (64.9 °C) is reported as 0.36 kcal/mol, the “heat capacity change of unfolding” value (64.9 °C) is reported as 1.48 kcal/mol/K and the Tm is reported as 63.8 °C. The “change of melting temperature, mutant” value was -1.1 °C, the “heat capacity change of unfolding” value was 1.48 kcal/mol/K and the “unfolding enthalpy (calorimetric)” value was 114 kcal/mol. The “unfolding enthalpy (van 't Hoff)” value was 120 kcal/mol.

In the case of V139A, the “ddG of mutation (higher = less stable)” value (64.9 °C) is reported as 1.44 kcal/mol, the “heat capacity change of unfolding” value (64.9 °C) is reported as 1.53 kcal/mol/K and the Tm is reported as 60.4 °C. For the same variant, the “change of melting temperature, mutant” value was -4.5 °C, the “heat capacity change of unfolding” value was 1.53 kcal/mol/K and the “unfolding enthalpy (calorimetric)” value was 110 kcal/mol. The “unfolding enthalpy (van 't Hoff)” value was 112 kcal/mol.

For V118A, the “ddG of mutation (higher = less stable)” value (64.9 °C) was 0.26 kcal/mol, the “heat capacity change of unfolding” value (64.9 °C) was 1 kcal/mol/K and the Tm was 64.1 °C. For the same variant, the “change of melting temperature, mutant” value was -0.8 °C, the “heat capacity change of unfolding” value was 1 kcal/mol/K and the “unfolding enthalpy (calorimetric)” value was 110 kcal/mol. The “unfolding enthalpy (van 't Hoff)” value was 120 kcal/mol.

With V128A the “ddG of mutation (higher = less stable)” value (64.9 °C) was -0.53 kcal/mol, the “heat capacity change of unfolding” value (64.9 °C) was 1.24 kcal/mol/K and the Tm was 66.4 °C. The “change of melting temperature, mutant” value was 1.5 °C, the “heat capacity change of unfolding” value was 1.24 kcal/mol/K and the “unfolding enthalpy (calorimetric)” value was 116 kcal/mol. The “unfolding enthalpy (van 't Hoff)” value was 122 kcal/mol.

For V148A, the “ddG of mutation (higher = less stable)” value (64.9 °C) was 0.84 kcal/mol, the “heat capacity change of unfolding” value (64.9 °C) was 1.51 kcal/mol/K and the Tm was 62.3 °C. The “change of melting temperature, mutant” value was -2.6 °C, the “heat capacity change of unfolding” value was 1.51 kcal/mol/K and the “unfolding enthalpy (calorimetric)” value was 111 kcal/mol. For the same variant, the “unfolding enthalpy (van 't Hoff)” value was 119 kcal/mol.

In the case of V143A, the “ddG of mutation (higher = less stable)” value (64.9 °C) is reported as 1.32 kcal/mol, the “heat capacity change of unfolding” value (64.9 °C) is reported as 1.29 kcal/mol/K and the Tm is reported as 60.9 °C. The “change of melting temperature, mutant” value was -4 °C, the “heat capacity change of unfolding” value was 1.29 kcal/mol/K and the “unfolding enthalpy (calorimetric)” value was 113 kcal/mol. The “unfolding enthalpy (van 't Hoff)” value was 116 kcal/mol.

In the case of V117A, the “ddG of mutation (higher = less stable)” value (64.9 °C) is reported as 0.98 kcal/mol, the “heat capacity change of unfolding” value (64.9 °C) is reported as 1.58 kcal/mol/K and the Tm is reported as 61.9 °C. The “change of melting temperature, mutant” value was -3 °C, the “heat capacity change of unfolding” value was 1.58 kcal/mol/K and the “unfolding enthalpy (calorimetric)” value was 111 kcal/mol. For the same variant, the “unfolding enthalpy (van 't Hoff)” value was 117 kcal/mol.

With V111A the Tm was 62.6 °C, the “change of melting temperature, mutant” value was -2.3 °C and the “heat capacity change of unfolding” value was 1.53 kcal/mol/K. The “unfolding enthalpy (calorimetric)” value was 112 kcal/mol and the “unfolding enthalpy (van 't Hoff)” value was 120 kcal/mol.
